Test: Adenosine deaminase (ADA) enzymatic activity assay kit
Format: biochemical
Settings: for adenosine deaminase activity mU/mL / ΔA/min, adenosine deaminase activity: protein diluted to 5 μg/mL, serially diluted 2 fold (Table 21); for % activity vs. WT: relative to rHuADA2 WT (Table 21)
Procedure: Adenosine deaminase activity was determined using an adenosine deaminase (ADA) assay kit (Genway, San Diego, Calif.; Cat. No. BQ014EALD) with minor modifications. The ADA assay is based on the enzymatic deamination of adenosine to inosine, which is converted to hypoxanthine by purine nucleoside phosphorylase (PNP). Hypoxanthine is then converted to uric acid and hydrogen peroxide by xanthine oxidase (XOD). Hydrogen peroxide is further reacted with N-Ethyl-N-(2-hydroxy-3-sulfopropyl)-3-methylaniline (EHSPT) and 4-aminoantipyrine (4-AA) in the presence of peroxidase (POD) to generate quinone dye, which is monitored in a kinetic manner.
Briefly, 5 μL samples in duplicates (at appropriate dilutions to measure steady-state, non-saturating enzyme activity) were added to 120 μL R1 reagent (provided by the manufacturer; 50 mM Tris HCL, pH 8.0, 2 mM 4-AA, 0.1 U/mL PNP, 0.2 U/mL XOD, 0.6 U/mL peroxidase) in a 96 well plate, according to manufacturer's instructions. The mixtures were incubated at 37° C. for approximately 5 min and 60 μL of R2 reagent (provided by the manufacturer; 50 mM Tris HCl, pH 4.0, 10 mM Adenosine, 2 mM EHSPT) was added to the mixtures. Then, change in absorbance (AA) at 556 nm over time at 37° C. was measured. One unit of ADA is the amount of ADA that generates one μmole of inosine from adenosine per minute at 37° C. Adenosine deaminase activity in mU/mL was calculated using the following formula: 1 mU/mL=(ΔA/min×Tv)/(Sv×ϵ×1) • where Tv=total volume (185 μL), Sv=sample volume (5 μL), ϵ=32.2×10^−3 μM^−1 cm^−1, 1=0.5 cm.
Adenosine deaminase activity of WT rHuADA2 and variants tested above were determined using the adenosine deaminase activity (ADA) assay described in Example 4. Activity was assessed on purified rHuADA2 WT and variants that were diluted to 5 μg/mL, and then serially diluted 2 fold to generate 4 measurements.
Adenosine deaminase activity of PEGylated rHuADA2 and variants was assessed using the method described in Example 4, and compared to the activity of the corresponding non-PEGylated form.
Selected candidate variants described in Table 8 above, containing an amino acid substitution in a residue that play a role in enzymatic activity, were assessed for their adenosine deaminase activity using the method described in Example 4. To perform the experiments, purified WT rHuADA2 and tested variants were prepared at 5 μg/mL concentration to normalize the amount of protein in each experiment.

Molecule | enzymatic activity relative to WT rHuADA2 | adenosine deaminase activity mU/mL [mU/mL] | ΔA/min, adenosine deaminase activity | % activity vs. WT [%]
K455D: ADA2 variant SEQ ID NO:26 (protein, human ADA2 K452D, mature numbering) IDETRAHLLLKEKMMRLGGRLVLNTKEELANERLMTLKIAEMKEAMRTLIFPPSMHFFQAKHLIERSQVFNILRMMPKGAALHLHDIGIVTMDWLVRNVTYRPHCHICFTPRGIMQFRFAHPTPRPSEKCSKWILLEDYRKRVQNVTEFDDSLLRNFTLVTQHPEVIYTNQNVVWSKFETIFFTISGLIHYAPVFRDYVFRSMQEFYEDNVLYMEIRARLLPVYELSGEHHDEEWSVKTYQEVAQKFVETHPEFIGIKIIYSDHRSKDVAVIAESIRMAMGLRIKFPTVVAGFDLVGHEDTGHSLHDYKEALMIPAKDGVKLPYFFHAGETDWQGTSIDRNILDALMLNTTRIGHGFALSKHPAVRTYSWKKDIPIEVCPISNQVLKLVSDLRNHPVATLMATGHPMVISSDDPAMFGAKGLSYDFYEVFMGIGGMKADLRTLKQLAMNSIDYSTLLESEKNTFMEIWKKRWDKFIADVATK | improved enzymatic activity | 97.9 | 42.6 | 125.5
K16A: ADA2 variant SEQ ID NO:16 (protein, human ADA2 K13A, mature numbering) IDETRAHLLLKEAMMRLGGRLVLNTKEELANERLMTLKIAEMKEAMRTLIFPPSMHFFQAKHLIERSQVFNILRMMPKGAALHLHDIGIVTMDWLVRNVTYRPHCHICFTPRGIMQFRFAHPTPRPSEKCSKWILLEDYRKRVQNVTEFDDSLLRNFTLVTQHPEVIYTNQNVVWSKFETIFFTISGLIHYAPVFRDYVFRSMQEFYEDNVLYMEIRARLLPVYELSGEHHDEEWSVKTYQEVAQKFVETHPEFIGIKIIYSDHRSKDVAVIAESIRMAMGLRIKFPTVVAGFDLVGHEDTGHSLHDYKEALMIPAKDGVKLPYFFHAGETDWQGTSIDRNILDALMLNTTRIGHGFALSKHPAVRTYSWKKDIPIEVCPISNQVLKLVSDLRNHPVATLMATGHPMVISSDDPAMFGAKGLSYDFYEVFMGIGGMKADLRTLKQLAMNSIKYSTLLESEKNTFMEIWKKRWDKFIADVATK |  | 28 | 12.2 | 35.9
K16E: ADA2 variant SEQ ID NO:18 (protein, human ADA2 K13E, mature numbering) IDETRAHLLLKEEMMRLGGRLVLNTKEELANERLMTLKIAEMKEAMRTLIFPPSMHFFQAKHLIERSQVFNILRMMPKGAALHLHDIGIVTMDWLVRNVTYRPHCHICFTPRGIMQFRFAHPTPRPSEKCSKWILLEDYRKRVQNVTEFDDSLLRNFTLVTQHPEVIYTNQNVVWSKFETIFFTISGLIHYAPVFRDYVFRSMQEFYEDNVLYMEIRARLLPVYELSGEHHDEEWSVKTYQEVAQKFVETHPEFIGIKIIYSDHRSKDVAVIAESIRMAMGLRIKFPTVVAGFDLVGHEDTGHSLHDYKEALMIPAKDGVKLPYFFHAGETDWQGTSIDRNILDALMLNTTRIGHGFALSKHPAVRTYSWKKDIPIEVCPISNQVLKLVSDLRNHPVATLMATGHPMVISSDDPAMFGAKGLSYDFYEVFMGIGGMKADLRTLKQLAMNSIKYSTLLESEKNTFMEIWKKRWDKFIADVATK |  | 16.3 | 7.1 | 20.9
K16D: ADA2 variant SEQ ID NO:17 (protein, human ADA2 K13D, mature numbering) IDETRAHLLLKEDMMRLGGRLVLNTKEELANERLMTLKIAEMKEAMRTLIFPPSMHFFQAKHLIERSQVFNILRMMPKGAALHLHDIGIVTMDWLVRNVTYRPHCHICFTPRGIMQFRFAHPTPRPSEKCSKWILLEDYRKRVQNVTEFDDSLLRNFTLVTQHPEVIYTNQNVVWSKFETIFFTISGLIHYAPVFRDYVFRSMQEFYEDNVLYMEIRARLLPVYELSGEHHDEEWSVKTYQEVAQKFVETHPEFIGIKIIYSDHRSKDVAVIAESIRMAMGLRIKFPTVVAGFDLVGHEDTGHSLHDYKEALMIPAKDGVKLPYFFHAGETDWQGTSIDRNILDALMLNTTRIGHGFALSKHPAVRTYSWKKDIPIEVCPISNQVLKLVSDLRNHPVATLMATGHPMVISSDDPAMFGAKGLSYDFYEVFMGIGGMKADLRTLKQLAMNSIKYSTLLESEKNTFMEIWKKRWDKFIADVATK |  | 67.3 | 29.3 | 86.3
K14D: ADA2 variant SEQ ID NO:14 (protein, human ADA2 K11D, mature numbering) IDETRAHLLLDEKMMRLGGRLVLNTKEELANERLMTLKIAEMKEAMRTLIFPPSMHFFQAKHLIERSQVFNILRMMPKGAALHLHDIGIVTMDWLVRNVTYRPHCHICFTPRGIMQFRFAHPTPRPSEKCSKWILLEDYRKRVQNVTEFDDSLLRNFTLVTQHPEVIYTNQNVVWSKFETIFFTISGLIHYAPVFRDYVFRSMQEFYEDNVLYMEIRARLLPVYELSGEHHDEEWSVKTYQEVAQKFVETHPEFIGIKIIYSDHRSKDVAVIAESIRMAMGLRIKFPTVVAGFDLVGHEDTGHSLHDYKEALMIPAKDGVKLPYFFHAGETDWQGTSIDRNILDALMLNTTRIGHGFALSKHPAVRTYSWKKDIPIEVCPISNQVLKLVSDLRNHPVATLMATGHPMVISSDDPAMFGAKGLSYDFYEVFMGIGGMKADLRTLKQLAMNSIKYSTLLESEKNTFMEIWKKRWDKFIADVATK |  | 18.7 | 8.1 | 24
K455A: ADA2 variant SEQ ID NO:25 (protein, human ADA2 K452A, mature numbering) IDETRAHLLLKEKMMRLGGRLVLNTKEELANERLMTLKIAEMKEAMRTLIFPPSMHFFQAKHLIERSQVFNILRMMPKGAALHLHDIGIVTMDWLVRNVTYRPHCHICFTPRGIMQFRFAHPTPRPSEKCSKWILLEDYRKRVQNVTEFDDSLLRNFTLVTQHPEVIYTNQNVVWSKFETIFFTISGLIHYAPVFRDYVFRSMQEFYEDNVLYMEIRARLLPVYELSGEHHDEEWSVKTYQEVAQKFVETHPEFIGIKIIYSDHRSKDVAVIAESIRMAMGLRIKFPTVVAGFDLVGHEDTGHSLHDYKEALMIPAKDGVKLPYFFHAGETDWQGTSIDRNILDALMLNTTRIGHGFALSKHPAVRTYSWKKDIPIEVCPISNQVLKLVSDLRNHPVATLMATGHPMVISSDDPAMFGAKGLSYDFYEVFMGIGGMKADLRTLKQLAMNSIAYSTLLESEKNTFMEIWKKRWDKFIADVATK |  | 14 | 6.1 | 18
K14A: ADA2 variant SEQ ID NO:13 (protein, human ADA2 K11A, mature numbering) IDETRAHLLLAEKMMRLGGRLVLNTKEELANERLMTLKIAEMKEAMRTLIFPPSMHFFQAKHLIERSQVFNILRMMPKGAALHLHDIGIVTMDWLVRNVTYRPHCHICFTPRGIMQFRFAHPTPRPSEKCSKWILLEDYRKRVQNVTEFDDSLLRNFTLVTQHPEVIYTNQNVVWSKFETIFFTISGLIHYAPVFRDYVFRSMQEFYEDNVLYMEIRARLLPVYELSGEHHDEEWSVKTYQEVAQKFVETHPEFIGIKIIYSDHRSKDVAVIAESIRMAMGLRIKFPTVVAGFDLVGHEDTGHSLHDYKEALMIPAKDGVKLPYFFHAGETDWQGTSIDRNILDALMLNTTRIGHGFALSKHPAVRTYSWKKDIPIEVCPISNQVLKLVSDLRNHPVATLMATGHPMVISSDDPAMFGAKGLSYDFYEVFMGIGGMKADLRTLKQLAMNSIKYSTLLESEKNTFMEIWKKRWDKFIADVATK |  | 11.4 | 4.9 | 14.6
